From patent US20060239990A1, “Protein Arginine N-Methyltransferase 2 (PRMT-2)” (priority 2003, published 2006)

B1: leptin: recombinant mouse leptin (Sigma-Aldrich Inc.) (protein, UniProt P41160 22-167, looked up)
Leptin: VPIQKVQDDTKTLIKTIVTRINDISHTQSVSAKQRVTGLDFIPGLHPILSLSKMDQTLAVYQQVLTSLPSQNVLQIANDLENLRDLLHLLAFSKSCSLPQTSGLQKPESLDGVLEASLYSTEVVALSRLQGSLQDILQQLDVSPEC
B2: PRMT2-Flag: Flag-tagged wild-type mouse PRMT2 fusion protein purified from transfected HEK293 cells (protein)
chain: MEAPGEGPCSESQVIPVLEEDPVDYGCEMQLLQDGAQLQLQLQPEEFVAIADYTATDETQLSFLRGEKILILRQTTADWWWGERAGCCGYIPANHLGKQLEEYDPEDTWQDEEYFDSYGTLKLHLEMLADQPRTTKYHSVILQNKESLKDKVILDVGCGTGIISLFCAHHARPKAVYAVEASDMAQHTSQLVLQNGFADTITVFQQKVEDVVLPEKVDVLVSEWMGTCLLFEFMIESILYARDTWLKGDGIIWPTTAALHLVPCSAEKDYHSKVLFWDNAYEFNLSALKSLAIKEFFSRPKSNHILKPEDCLSEPCTILQLDMRTVQVPDLETMRGELRFDIQKAGTLHGFTAWFSVYFQSLEEGQPQQVVSTGPLHPTTHWKQTLFMMDDPVPVHTGDVVHGFCCVTKKSGMEKAHVCLSELGCHVRTRSHVSTELETGSFRSGGDS
modifications: left off: small tags and cut ends
notes: Flag-tagged wild-type mouse PRMT2 fusion protein purified from transfected HEK293 cells

Key:
[1] = Leptin sensitivity study in mice; assay type: in vivo, mouse; conditions: for food intake: after administration of leptin
Procedure: To determine leptin sensitivity, 9- to 13-week-old mice, matched for similar body weight at both day 4 and day 0, were individually caged and body weight and food intake were measured once daily (5:30 pm) throughout the experiment. For the first 7 days, mice were injected intraperitoneally twice daily (12:00 pm and 6:00 pm) with PBS to establish a baseline of weight change and food intake. […] Body weight and food intake was measured once a day during the experiment.

[2] = test system: hypothalamic POMC and NPY mRNA; experiment: Leptin treatment, hypothalamic POMC and NPY mRNA by real-time PCR; assay type: in vivo, mouse; conditions: for weight loss: leptin 0.5 μg/g body weight
Procedure: Mice in the 8-12 week of age allowed free access to chow and water were intraperitoneally injection for 3 days with either PBS or recombinant mouse leptin (Sigma) at a dose of 0.5 μg/g body weight twice a daily (9:00 am and 7:00 pm). Hypothalamus was isolated from the mice at 6 hr after leptin treatment and snap-frozen. Total hypothalamic RNA was isolated using Trizol (Invitrogen) according to the manufacturer's instructions. Total RNA was treated with ribonuclease-free deoxyribonuclease (DNase) I for 30 min using a commercially available kit (Invitrogen) to eliminate contamination of genomic DNA. The RNA samples were reverse transcribed with TaqMan Reverse Transcription Reagents (Applied Biosystems, Foster City, Calif.) and subjected to automated fluorescent RT-PCR on an ABI PRISM 7700 Sequence Detection System (Applied Biosystems). All TaqMan probes were labeled with the reporter fluorescein at the 5′-end and with the quencher tetramethylrhodamine at the 3′-end. The following oligonucleotides derived form the mouse POMC and NPY were synthesized and used as primers and probes for Real-time PCR: POMC (sense, 5′-[…]-3′ (SEQ ID NO:42), antisense, 5′-[…]-3′ (SEQ ID NO:43), probe, 5′-6FAM-[…]-TAMRA-3′, SEQ ID NO:44); NPY (sense, 5′-[…]-3′ (SEQ ID NO:45), antisense, 5′-[…]-3′ (SEQ ID NO:46) probes, 5′-6FAM-[…]-TAMRA-3′ (SEQ ID NO:47)). TaqMan Rodent GAPDH Control Reagents (Applied Biosystems) were used as a control primers and probe for each template. Each predicted RT-PCR product spanned an intron/exon junction. The reactions were incubated for 2 min at 50° C., followed by 10 min at 95° C., and then 40 cycles of 15 sec at 95° C. and 1 min at 60° C. Each RT-PCR reaction was performed in triplicate in a final volume of 20 μl and assessed by the comparative Ct (ΔΔCt) method (Applied Biosystems, ABI Prism 7700 Users Bulletin #2).

Stat3 = experiment: Leptin-stimulated Stat3 immunoprecipitation and immunoblotting (methylation, PRMT-2 association); assay type: cell-based, mouse; conditions: leptin 100 nM
Procedure: Immunoprecipitation of STAT3 was performed as follows. Cells treated with or without 100 nM mouse leptin for selected times were washed with phosphate buffered saline and lysed in Nonidet P-40 (NP-40) buffer (20 mM Tris-HCl, pH 8.0, 150 mM NaCl, 25 mM EDTA, 1.0% Triton-X, 0.1% SDS, 10% glycerol, 100 mM NaF, 100 mM Na3P2O7, 1.0% deoxycholic acid, 1 mM Na3VO4, 1× protease inhibitors cocktail; Roche Diagnostic Corp., Indianapolis, Ind.) or RIPA buffer (50 mM Tris-HCl, pH 8.0, 150 mM NaCl, 1% NP-40, 0.5% Na-deoxycholate, 0.1% SDS, 1× protease inhibitors cocktail). After the lysates were incubated to solubilize proteins for 30 min at 4° C., and before they were centrifuged at 15,000 rpm for 10 min at 4° C., the supernatants were rocked with either polyclonal anti-STAT3 antibodies (1:2,000) or monoclonal anti-Flag antibodies for 14 hr at 4° C., and then with protein G agarose for 3 hr at 4° C. For in vitro stimulation, the supernatants from extracted tissue homogenates were rocked with 2 μg polyclonal anti-IRS-1 antibody, and then protein G agarose for 3 hr at 4° C. The beads were washed three times with lysis buffer without proteinase inhibitors, solubilized in 15 μl 3×SDS-polyacrylamide gel electrophoresis (PAGE) buffer (187.5 mM Tris-HCl, 6% SDS, 30% glycerol, 150 mM dithiothreitol, 0.3% bromophenol blue, pH6.8), and subjected to the immunoblotting.
Immunoblotting was performed by boiling samples for 5 min at 95° C. followed by centrifugation for 1 min at 4° C. Aliquots of the supernatant were subjected to 7.5, 10% or 4-15% SDS-PAGE. Proteins in the gel were transferred to a nitrocellulose membrane by electroblotting. The membranes were treated with either anti-pTyr, anti-STAT3, anti-phospho STAT3, anti-α-metR, anti-IRS-1, anti-Flag, anti-phospho IRS-1, anti-arginine (mono- and di-methyl), or anti-β-actin antibodies followed by incubation with secondary antibodies conjugated with HRP. Immunoreactive proteins were detected either by ECL or by ECL plus system (Amersham Pharmacia Biotech). In some cases, bands were quantified using the NIH Image software (Image J version 1.2; National Institutes of Health, Bethesda, Md.). The figures are representative of 3 experiments.

hypothalamic Stat3 = experiment: Phospho-Stat3 immunohistochemistry of hypothalamus after leptin; assay type: in vivo, mouse; conditions: wild-type mice, leptin 1.67 μg/g body weight peripheral
Procedure: After overnight fasting, brains of wild-type and PRMT2−/− mice treated with or without mouse leptin (1.67 μg/g body weight) for 90 min were removed immediately after decapitation, frozen in 2-methylbutane with a bed of crushed dry ice for 6 sec. 16-μm thick coronal sections were cut on a cryostat at −20° C. and were thaw-mounted on slides (K•D Medical Inc., Columbia, Md.). Sections were fixed with acetone for 10 min at 4° C. and then incubated in methanol for 30 min at −20° C. After treatment with 0.3% H2O2 in methanol for 30 min at room temperature to block endogenous peroxidase, sections were blocked in Tris-buffered saline (TBS)-Ca (100 mM Tris-HCl, pH 7.4, 150 mM NaCl, 1 mM CaCl2) containing 10% normal goat serum and 3% bovine serum albumin (BSA) and incubated with a rabbit anti-pStat3 (pY705) diluted in the same blocking solution as previously described above overnight at 4° C. On the next day sections were washed three time with TBS-Ca, incubated with a biotinylated secondary goat antibody in TBS-Ca containing 1% BSA for 1 hr at room temperature and then treated with ABC solution (Vector laboratories, Inc., Burlingame, Calif.) for 1 hr. In a final step, the signal was developed by DAB solution (Vector laboratories), giving a brown precipitate, dehydrated and mounted using Permount (Sigma-Aldrich). […]

GST-Stat3 = biological target: T1, GST-Stat3 (Mus musculus, UniProt P42227); experiment: In vitro methylation assay of GST-Stat3; assay type: biochemical; conditions: Flag fusion protein from transfected HEK293 cells, [3H]-AdoMet
T1 construct: The same region with the Arg31→Ala mutant was generated from the wild-type pGEX6P-3 STAT3 construct; made in house; host or cells: E. coli (BL21 (DE3); Top10 One Shot)
T1 sequence (P42227 1-131 limits assumed): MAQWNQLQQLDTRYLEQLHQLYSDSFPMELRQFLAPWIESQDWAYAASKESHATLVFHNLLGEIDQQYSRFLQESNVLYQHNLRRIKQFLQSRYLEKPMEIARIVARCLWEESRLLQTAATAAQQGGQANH
Procedure: 293 cells were transiently transfected with expression vectors encoding Flag-tagged wild-type or mutant mouse PRMT2. After incubation for 48 hr, cells were lysed with 500 μl of RIPA buffer and 1.8 mg of 293 cell lysates was incubated with 40 μl of Anti-Flag M2 Affinity Gel (Sigma) for 3 hr at 4° C. Immune complexes were washed three times with lysis buffer without proteinase inhibitor and subjected to in vitro methylation reaction. Mouse fibroblasts were grown to 80% confluence on a 10 cm plate. Cells were washed and scraped off the plate into 500 μl of PBS (pH 7.4), and were lysed by sonication. After centrifugation at 15,000 rpm for 10 min at 4° C., the supernatants were used as the enzyme source. In vitro methylation reactions were performed by adding the immune complexes or cell lysates to 0.64 μg Histone and/or 1 μg of GST, GST-STAT3 or GST-STAT3 Arg31→Ala31 using 2 μCi of the methyl donor S-adenosyl-1[methyl-3H]methionine ([3H]-AdoMet) (Amersham Biosciences) in a final volume of 35 μl. The reactions were incubated for 1 hr at 4° C. and were terminated by addition of 3×SDS-loading buffer. […]

| methylation of GST-Stat3 (GST-Stat3) | Molecule | food intake ([1]; PRMT2−/− mice) [%] | weight change ([1]; PRMT2−/− mice, leptin 0.1 μg/g) | food intake ([1]; wild-type mice) | weight change ([1]; wild-type mice, leptin 0.1 μg/g peripheral injection, for 5 days) [g] | higher level of hypothalamic POMC mRNA compared with leptin-treated wild-type mice ([2]; PRMT2−/− mice, leptin 0.5 μg/g) [%] | hypothalamic NPY mRNA expression ([2]; PRMT2−/− mice, leptin 0.5 μg/g) | weight loss ([2]; PRMT2−/− mice) [g] | increase of hypothalamic POMC mRNA compared with untreated mice ([2]; wild-type mice, leptin 0.5 μg/g) [%] | weight loss ([2]; wild-type mice) [g] | PRMT-2 co-precipitated with STAT3 (Stat3; GT1-7 cells) | Stat3 methylation (Stat3; GT1-7 cells) | Stat3 methylation (Stat3; PRMT2−/− VSMC) | Stat3 methylation (Stat3; wild-type VSMC) | time of peak tyrosine phosphorylation of hypothalamic Stat3 (hypothalamic Stat3) [min] |
| --- | --- | --- | --- | --- | --- | --- | --- | --- | --- | --- | --- | --- | --- | --- | --- |
| – | B1 | ~92 | continuously lost weight for the duration of the study | did not alter food intake | -0.158 | ~90 | significantly reduced | -1.0 ± 0.2 | ~53 | -0.59 ± 0.29 | enhanced that amount PRMT-2 that co-precipitated with STAT3 | remarkably increased at 5 min and sustained for 60 min | increased Stat3 methylation was not observed | evoked a transient methylation of Stat3 at 10 min | 45 |
| could methylate GST-Stat3 | B2 | – | – | – | – | – | – | – | – | – | – | – | – | – | – |
